Source: patent US20250152746A1, “BASE EDITING OF ANGPTL3 AND METHODS OF USING SAME FOR TREATMENT OF DISEASE” (Verve Therapeutics, Inc., priority 2020, published 2025)
In the oligonucleotide strings, read from the 5' end, every base follows the letter of its sugar. An asterisk marks phosphorothioate; unmarked linkages are phosphodiester. Other units and linkages are bracketed, terminal groups are in braces. A string of capitals states the bases alone. m = 2'-O-methyl; r = 2'-OH (RNA)

B1: GA200: PCSK9 gRNA; protospacer CTAGGAGATACACCTCCACC (SEQ ID NO: 194) (nucleic acid)
guide: CUAGGAGAUACACCUCCACCGUUUUAGAGCUAGAAAUAGCAAGUUAAAAUAAGGCUAGUCCGUUAUCAACUUGAAAAAGUGGCACCGAGUCGGUGCUUUU
modifications: sugars from the 5' end m3 r94 m3, linkages s3 o93 s3 (s phosphorothioate, o phosphodiester), T or U not given here
B2: GA198: PCSK9 gRNA; protospacer CCACCGGGAAATCGAGGGCA (SEQ ID NO: 192) (nucleic acid)
guide: CCACCGGGAAAUCGAGGGCAGUUUUAGAGCUAGAAAUAGCAAGUUAAAAUAAGGCUAGUCCGUUAUCAACUUGAAAAAGUGGCACCGAGUCGGUGCUUUU
modifications: sugars from the 5' end m3 r94 m3, linkages s3 o93 s3 (s phosphorothioate, o phosphodiester), T or U not given here
B3: GA204: PCSK9 gRNA; protospacer CACTCTGTATGCTGGTGTCT (SEQ ID NO: 198) (nucleic acid)
guide: CACUCUGUAUGCUGGUGUCUGUUUUAGAGCUAGAAAUAGCAAGUUAAAAUAAGGCUAGUCCGUUAUCAACUUGAAAAAGUGGCACCGAGUCGGUGCUUUU
modifications: sugars from the 5' end m3 r94 m3, linkages s3 o93 s3 (s phosphorothioate, o phosphodiester), T or U not given here
B4: GA158: PCSK9 gRNA; protospacer GCTAGCCTTGCGTTCCGAGG (SEQ ID NO: 152) (nucleic acid)
guide: mG*mC*mU*rArGrCrCrUrUrGrCrGrUrUrCrCrGrArGrGrGrUrUrUrUrArGrArGrCrUrArGrArArArUrArGrCrArArGrUrUrArArArArUrArArGrGrCrUrArGrUrCrCrGrUrUrArUrCrArArCrUrUrGrArArArArArGrUrGrGrCrArCrCrGrArGrUrCrGrGrUrGrCrU*mU*mU*mU
B5: GA197: PCSK9 gRNA; protospacer AGTGACCACCGGGAAATCGA (SEQ ID NO: 191) (nucleic acid)
guide: AGUGACCACCGGGAAAUCGAGUUUUAGAGCUAGAAAUAGCAAGUUAAAAUAAGGCUAGUCCGUUAUCAACUUGAAAAAGUGGCACCGAGUCGGUGCUUUU
modifications: sugars from the 5' end m3 r94 m3, linkages s3 o93 s3 (s phosphorothioate, o phosphodiester), T or U not given here
B6: GA199: PCSK9 gRNA; protospacer GAAGCGGGTCCCGTCCTCCT (SEQ ID NO: 193) (nucleic acid)
guide: GAAGCGGGUCCCGUCCUCCUGUUUUAGAGCUAGAAAUAGCAAGUUAAAAUAAGGCUAGUCCGUUAUCAACUUGAAAAAGUGGCACCGAGUCGGUGCUUUU
modifications: sugars from the 5' end m3 r94 m3, linkages s3 o93 s3 (s phosphorothioate, o phosphodiester), T or U not given here
B7: GA202: PCSK9 gRNA; protospacer AAGCGGGTCCCGTCCTCCTC (SEQ ID NO: 196) (nucleic acid)
guide: AAGCGGGUCCCGUCCUCCUCGUUUUAGAGCUAGAAAUAGCAAGUUAAAAUAAGGCUAGUCCGUUAUCAACUUGAAAAAGUGGCACCGAGUCGGUGCUUUU
modifications: sugars from the 5' end m3 r94 m3, linkages s3 o93 s3 (s phosphorothioate, o phosphodiester), T or U not given here
B8: GA203: PCSK9 gRNA; protospacer TGACCCTGCCCTCGATTTCC (SEQ ID NO: 197) (nucleic acid)
guide: UGACCCUGCCCUCGAUUUCCGUUUUAGAGCUAGAAAUAGCAAGUUAAAAUAAGGCUAGUCCGUUAUCAACUUGAAAAAGUGGCACCGAGUCGGUGCUUUU
modifications: sugars from the 5' end m3 r94 m3, linkages s3 o93 s3 (s phosphorothioate, o phosphodiester), T or U not given here
B9: GA201: PCSK9 gRNA; protospacer CAGCATACAGAGTGACCACC (SEQ ID NO: 195) (nucleic acid)
guide: CAGCAUACAGAGUGACCACCGUUUUAGAGCUAGAAAUAGCAAGUUAAAAUAAGGCUAGUCCGUUAUCAACUUGAAAAAGUGGCACCGAGUCGGUGCUUUU
modifications: sugars from the 5' end m3 r94 m3, linkages s3 o93 s3 (s phosphorothioate, o phosphodiester), T or U not given here

Each molecule was assayed on PCSK9 gene (assay: PCSK9 gRNA/SpCas9 editing in primary human hepatocytes (Tables 2, 4)). Details: 100 ng/RNA/mL; SpCas9 mRNA MS002 1:1 by weight.
Assay type: cell-based
Description: In set of experiments, PCSK9 gRNAs were co-transfected with an equivalent amount (1:1 ratio by weight) of in vitro transcribed commercially available SpCas9 mRNA MS002 purchased from TriLink Biotechnologies into primary human hepatocytes at 2500, 500, or 100 ng/RNA/mL and processed as described in detailed methods. Extracted genomic DNA was analyzed for gene editing at the target site with next-generation sequencing of PCR amplicons generated around the target sites. Samples were prepared using the Nextera XT DNA library preparation kit (Illumina) according to the manufacturer's protocol. Briefly, two rounds of PCR were performed first to amplify the region of interest and second to add DNA sequences required for next generation sequencing and sample identification to the initial product. The final amplicon was sequenced on the Illumina MiSeq instrument according to the manufacturer's protocol. A wide range of editing activities (Table 2) were observed. In a second set of experiments, ANGPTL3 gRNAs were co-transfected with an equivalent amount of in vitro transcribed SpCas9 mRNA (1:1 ratio by weight) into primary human hepatocytes and processed and analyzed similarly (Table 3).
PCSK9 gRNAs were co-transfected with an equivalent amount of in vitro transcribed SpCas9 mRNA MS002 (1:1 ratio by weight) into primary human hepatocytes and processed as described in detailed methods. A wide range of editing activities were observed (Table 4; ND=Not determined). The guides with the highest editing activity at five days post transfection were GA001, GA002, GA007, and GA008.
Human primary hepatocytes were transfected at 2500, 1250, 500, and 250 ng/test article/mL with SpCas9 mRNA MS002 and a gRNA targeting PCSK9 with modifications to the tracr. Genomic DNA was processed, sequenced, and analyzed as described in the detailed methods section. GA156 was transfected to serve as a positive control.
Plating, culturing, and transfection of primary hepatocytes. Primary human liver hepatocytes (PHH) and primary cynomolgus liver hepatocytes (PCH) from BioIVT were cultured per the manufacturer's protocol. Briefly, primary human hepatocytes and primary cyno hepatocytes were obtained as frozen aliquots from BioIVT. Four lots of primary human hepatocytes, each derived from a de-identified individual donor, were used for the experiments: STL (main donor) was used for all experiments, including screening experiments and off-target experiments; HLY, JLP, and TLY were used for off-target experiments. The HFG lot of primary cyno hepatocytes were used for experiments. Following the manufacturer's instructions, cells were thawed and rinsed prior to plating in 24-well plates that had been coated with bovine collagen overnight, with a density of approximate 350,000 cells/well in INVITROGRO hepatocyte medium supplemented with TORPEDO antibiotic mix (BioIVT). The cells were thawed and resuspended in hepatocyte thawing medium followed by centrifugation at 100 g for 10 min at 4° C. The supernatant was discarded, and the pelleted cells resuspended in hepatocyte plating medium. Each vial contains approximately 5 million cells that were used for plating one 24-well plate. Plated cells were allowed to settle and adhere for 4-6 h in a tissue culture incubator at 37° C. under 5% CO2 atmosphere. After incubation, cells were checked for monolayer formation. The incubating media were then replaced with fresh hepatocyte maintenance media (complete INVITROGRO medium obtained from BioIVT, the cell line provider). The cells thus became ready for transfection. Each of the gRNAs were co-transfected with an equivalent amount of in vitro transcribed ABE8.8 mRNA (1:1 ratio by molecular weight) into primary human hepatocytes via MessengerMax reagent (Lipofectamine), using various dilutions to assess for editing activity at different concentrations of test article. MessengerMAX from Thermo Fisher is used for transfection. […]
In the case of B1, the “Human Primary Hepatocyte Editing % 100” value is reported as 3.8%. B2 was tested, and the “Human Primary Hepatocyte Editing % 100” value was 0.04%. B3 was tested, and the “Human Primary Hepatocyte Editing % 100” value was 1.27%. With B4 the “Human Primary Hepatocyte Editing % 100” value was 2%. In the case of B5, the “Human Primary Hepatocyte Editing % 100” value is reported as 1.22%. For B6, the “Human Primary Hepatocyte Editing % 100” value was 1.17%. B7 was tested, and the “Human Primary Hepatocyte Editing % 100” value was 2.54%. For B8, the “Human Primary Hepatocyte Editing % 100” value was 2.57%. B9 was tested, and the “Human Primary Hepatocyte Editing % 100” value was 3.29%.

Same assay, conditions: 500 ng/RNA/mL; SpCas9 mRNA MS002 1:1 by weight
With B1 the “Human Primary Hepatocyte Editing % 500” value was 8.68%. With B2 the “Human Primary Hepatocyte Editing % 500” value was 10.58%. For B3, the “Human Primary Hepatocyte Editing % 500” value was 8.98%. In the case of B4, the “Human Primary Hepatocyte Editing % 500” value is reported as 6.55%. With B5 the “Human Primary Hepatocyte Editing % 500” value was 3.29%. B6 was tested, and the “Human Primary Hepatocyte Editing % 500” value was 6.89%. For B7, the “Human Primary Hepatocyte Editing % 500” value was 10.75%. For B8, the “Human Primary Hepatocyte Editing % 500” value was 12.76%. B9 was tested, and the “Human Primary Hepatocyte Editing % 500” value was 12.92%.

Same assay, conditions: 2500 ng/RNA/mL; SpCas9 mRNA MS002 1:1 by weight
With B1 the “Human Primary Hepatocyte Editing % 2500” value was 5.31%. With B2 the “Human Primary Hepatocyte Editing % 2500” value was 30.93%. B3 was tested, and the “Human Primary Hepatocyte Editing % 2500” value was 24.98%. With B4 the “Human Primary Hepatocyte Editing % 2500” value was 37.94%. B5 was tested, and the “Human Primary Hepatocyte Editing % 2500” value was 15.03%. With B6 the “Human Primary Hepatocyte Editing % 2500” value was 29.95%. For B7, the “Human Primary Hepatocyte Editing % 2500” value was 34.75%. With B8 the “Human Primary Hepatocyte Editing % 2500” value was 37.02%. For B9, the “Human Primary Hepatocyte Editing % 2500” value was 31.51%.

What follows are molecules tested on PCSK9 gene (assay: PCSK9 gRNA/SpCas9 editing in primary cynomolgus hepatocytes (Tables 2, 22)). Details: 100 ng/RNA/mL; SpCas9 mRNA MS002 1:1 by weight.
Assay type: cell-based, cynomolgus monkey
For B1, the “Cyno Primary Hepatocyte Editing % 100” value was 5.15%. With B2 the “Cyno Primary Hepatocyte Editing % 100” value was 3.53%. B3 was tested, and the “Cyno Primary Hepatocyte Editing % 100” value was 0.91%. In the case of B4, the “Cyno Primary Hepatocyte Editing % 100” value is reported as 1.04%. In the case of B5, the “Cyno Primary Hepatocyte Editing % 100” value is reported as 0.9%. For B6, the “Cyno Primary Hepatocyte Editing % 100” value was 3.07%. For B7, the “Cyno Primary Hepatocyte Editing % 100” value was 1.54%. For B8, the “Cyno Primary Hepatocyte Editing % 100” value was 3.66%. For B9, the “Cyno Primary Hepatocyte Editing % 100” value was 4.33%.

Same assay, conditions: 500 ng/RNA/mL; SpCas9 mRNA MS002 1:1 by weight
In the case of B1, the “Cyno Primary Hepatocyte Editing % 500” value is reported as 20.51%. B2 was tested, and the “Cyno Primary Hepatocyte Editing % 500” value was 16.15%. With B3 the “Cyno Primary Hepatocyte Editing % 500” value was 5.27%. In the case of B4, the “Cyno Primary Hepatocyte Editing % 500” value is reported as 4.42%. In the case of B5, the “Cyno Primary Hepatocyte Editing % 500” value is reported as 3.89%. In the case of B6, the “Cyno Primary Hepatocyte Editing % 500” value is reported as 15.11%. B7 was tested, and the “Cyno Primary Hepatocyte Editing % 500” value was 8.91%. With B8 the “Cyno Primary Hepatocyte Editing % 500” value was 10.49%. In the case of B9, the “Cyno Primary Hepatocyte Editing % 500” value is reported as 14.37%.

Same assay, conditions: 2500 ng/RNA/mL; SpCas9 mRNA MS002 1:1 by weight
In the case of B1, the “Cyno Primary Hepatocyte Editing % 2500” value is reported as 54.36%. B2 was tested, and the “Cyno Primary Hepatocyte Editing % 2500” value was 49%. For B3, the “Cyno Primary Hepatocyte Editing % 2500” value was 19.37%. With B4 the “Cyno Primary Hepatocyte Editing % 2500” value was 18.27%. With B5 the “Cyno Primary Hepatocyte Editing % 2500” value was 18.21%. For B6, the “Cyno Primary Hepatocyte Editing % 2500” value was 45.32%. With B7 the “Cyno Primary Hepatocyte Editing % 2500” value was 31.13%. In the case of B8, the “Cyno Primary Hepatocyte Editing % 2500” value is reported as 32.85%. B9 was tested, and the “Cyno Primary Hepatocyte Editing % 2500” value was 44.01%.
